US20080050351A1 (Pfizer, published 2008)

Target: T1, lecithin:cholesterol acyltransferase (LCAT), purified from human plasma (human, UniProt P04180 25-440)
T1 sequence (looked up): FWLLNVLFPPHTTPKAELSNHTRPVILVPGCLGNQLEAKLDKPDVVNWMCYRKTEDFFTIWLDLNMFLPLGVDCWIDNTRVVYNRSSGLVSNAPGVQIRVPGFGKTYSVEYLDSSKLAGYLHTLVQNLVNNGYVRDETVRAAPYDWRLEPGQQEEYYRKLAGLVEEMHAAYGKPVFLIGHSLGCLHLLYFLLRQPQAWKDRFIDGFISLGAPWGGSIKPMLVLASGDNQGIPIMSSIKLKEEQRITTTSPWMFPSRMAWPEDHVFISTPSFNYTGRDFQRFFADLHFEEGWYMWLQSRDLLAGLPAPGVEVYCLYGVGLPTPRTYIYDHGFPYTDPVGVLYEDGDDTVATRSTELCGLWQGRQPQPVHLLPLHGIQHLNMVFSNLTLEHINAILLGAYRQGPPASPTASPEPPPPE
Experiment: cell-based or functional assay

With DVLDLFRELLEELKQKLK [peptide 221] the “ACTIVITY (%) LCAT” value was 12%.
